In PMC12083643, “Closed State Structure of the Pore Revealed by Uncoupled Shaker K+ Channel” (Research Square, 2025):

Target: the molecule itself
Assay: cryo-EM structure; single-particle cryo-EM of the purified channel in 0.02% GDN, 150 mM KCl, 2 mM TCEP, 1 mM EDTA, 50 mM TRIS pH 7.5; about 0.7 mg/mL; refinement with C4 symmetry

B1: Shaker-IR-I384R (natural protein, UniProt P08510 1-655, looked up)
chain: MAAVALREQQLQRNSLDGYGSLPKLSSQDEEGGAGHGFGGGPQHFEPIPHDHDFCERVVINVSGLRFETQLRTLNQFPDTLLGDPARRLRYFDPLRNEYFFDRSRPSFDAILYYYQSGGRLRRPVNVPLDVFSEEIKFYELGDQAINKFREDEGFIKEEERPLPDNEKQRKVWLLFEYPESSQAARVVAIISVFVILLSIVIFCLETLPEFKHYKVFNTTTNGTKIEEDEVPDITDPFFLIETLCIIWFTFELTVRFLACPNKLNFCRDVMNVIDIIAIIPYFITLATVVAEEEDTLNLPKAPVSPQDKSSNQAMSLAILRVIRLVRVFRIFKLSRHSKGLQRLGRTLKASMRELGLLIFFLFIGVVLFSSAVYFAEAGSENSFFKSIPDAFWWAVVTMTTVGYGDMTPVGVWGKIVGSLCAIAGVLTIALPVPVIVSNFNYFYHRETDQEEMQSQNFNHVTSCPYLPGTLGQHMKKSSLSESSSDMMDLDDGVESTPGLTETHPGRSAVAPFLGAQQQQQQPVASSLSMSIDKQLQHPLQQLTQTQLYQQQQQQQQQQQNGFKQQQQQTQQQLQQQQSHTINASAAAATSGSGSSGLTMRHNNALAVSIETDV
notes: Subcloned into a modified pEG BacMam vector with a C-terminal HRV 3C protease site, eGFP and 8x-His; the channel was released from the beads by HRV 3C protease; PDB 7SIP (Shaker-IR without I384R) was the template for model building; also called uncoupled channel; uncoupled I384R mutant; not shown: eGFP, C-terminal, cleaved; 8x-His, C-terminal, cleaved
- stoichiometry N: 4
